In patent US8835467B2, “SIR2 regulation” (Albert Einstein College of Medicine of Yeshiva University, priority 2003, dated 2014):

Substrate: NC(=O)c1cccnc1
Assay: purified protein, by the assay type
Format: biochemical
Conditions: other: mouse enzyme; saturating NAD+ and peptide; pH 7.8
Method: After 2 hours, aliquots of 10 μL removed at 0, 30, 60, 90 and 120 min. Each aliquot was combined with 50 μL 50 mM ammonium acetate pH 5.0 to quench and assayed by HPLC for deacetylation products and NAD^+. The chromatograms (260 nm) were obtained using 50 mM ammonium acetate pH 5.0 as eluant on a semi-preparative Waters C-18 column (2.0 mL/min flow rate). Peaks for ADPR and 3′-O-Acetyl-ADPR were quantified by integration. The peak for NAD^+ was collected and radiation counted.

B1: Mouse SIR2 enzyme (SIR2α) (Mus musculus) (protein)
chain: MADEVALALQAAGSPSAAAAMEAASQPADEPLRKRPRRDGPGLGRSPGEPSAAVAPAAAGCEAASAAAPAALWREAAGAAASAEREAPATAVAGDGDNGSGLRREPRAADDFDDDEGEEEDEAAAAAAAAAIGYRDNLLLTDGLLTNGFHSCESDDDDRTSHASSSDWTPRPRIGPYTFVQQHLMIGTDPRTILKDLLPETIPPPELDDMTLWQIVINILSEPPKRKKRKDINTIEDAVKLLQECKKIIVLTGAGVSVSCGIPDFRSRDGIYARLAVDFPDLPDPQAMFDIEYFRKDPRPFFKFAKEIYPGQFQPSLCHKFIALSDKEGKLLRNYTQNIDTLEQVAGIQRILQCHGSFATASCLICKYKVDCEAVRGDIFNQVVPRCPRCPADEPLAIMKPEIVFFGENLPEQFHRAMKYDKDEVDLLIVIGSSLKVRPVALIPSSIPHEVPQILINREPLPHLHFDVELLGDCDVIINELCHRLGGEYAKLCCNPVKLSEITEKPPRPQKELVHLSELPPTPLHISEDSSSPERTVPQDSSVIATLVDQATNNNVNDLEVSESSCVEEKPQEVQTSRNVENINVENPDFKAVGSSTADKNERTSVAETVRKCWPNRLAKEQISKRLEGNQYLFVPPNRYIFHGAEVYSDSEDDVLSSSSCGSNSDSGTCQSPSLEEPLEDESEIEEFYNGLEDDTERPECAGGSGFGADGGDQEVVNEAIATRQELTDVNYPSDKS
notes: purchased Upstate Group
B1 was tested, and the Km was 127 µM.
